Test system: RSV Gag∆PR (Rous sarcoma virus (Prague C strain))
Assay: FA salt titration

Going from MΨ-A197C to MΨ-G218C, the Kd rises from 9.8 mM to 700 mM (71-fold).

Compared with MΨ-WT, MΨ-∆L3 is 130-fold higher in Kd: 0.23 mM for the first, 31 mM for the second.

MΨ-∆SL-B gave a Kd of 0.096 mM.

Reference: article PMC7291142
